Test results as given in patent US20150037333A1.

Target: canine TNF-alpha (canine) (UniProt P51742)
Experiment: cell-based or functional assay

canine TNF-alpha (canine), sequence (P51742 77-233 limits assumed): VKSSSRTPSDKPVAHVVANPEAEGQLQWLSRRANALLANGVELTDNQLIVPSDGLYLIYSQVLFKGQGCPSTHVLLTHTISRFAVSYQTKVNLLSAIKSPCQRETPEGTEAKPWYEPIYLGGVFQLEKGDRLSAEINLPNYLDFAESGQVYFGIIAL

inhibition of canine TNF-alpha bioactivity (1 ng/ml) in 293-HEK cells with NF-kB-EGFP reporter construct pTRH1; IC50: 1 ng/ml
Substance: human TNFR-canine HCB control fusion protein (human TNFR extracellular domain fused N-terminally to canine HCB hinge-CH2-CH3) (Fc fusion)
